Assay results from the DeepSol protein solubility set.

Assay: soluble on expression in E. coli; label from the status in PepcDB or PDB records

Sequence | soluble on expression in E. coli
MQTEGAQEMVLQDAVAGIYKKLVVDASGTQLLGAILVGDNSDYDALLHCYLNKTVLPDHAANLLFDTGMLDGEMPDSAIICSCHNVTKGDLVAEIQAGTTNLTDLKANTKAGTGCGGCSNMVKSVLDTQLAAMGVEVNNHLCEHFELSRQEMFHICQVEQIKDFDTLIALHGKGHGCDICKPTAASVFASLWNEHIMEPQHQSLQDSNDAFMANLQKDGSYSIVPRVPGGEITPDKLIVLGEVAQQYDLYTKITGGQRVDLFGAQLEQLPEIWQTLIDAGFETGHAYGKSVRTVKSCVGSTWCRYGVDDSVGLAIELENRYKGLRAPHKLKFAVSGCTRECAEAQSKDIGVIATENGWNLYVCGNGGMRPRHADLFASDLSKSELITMIDRVLMFYVSTADRLQRTSVWMENMEGGLDYLKQVILDDSLNLCDSLDEQMARVVDTYQCEWKSTLDNPQKLQRFRPFLNSTSGSKVLPYQRVRGQRIPVKQEV | not soluble
MDRKVAREFRHKVDFLIENDAEKDYLYDVLRMYHQTMDVAVLVGDLKLVINEPSRLPLFDAIRPLIPLKHQVEYDQLTPRRSRKLKEVRLDRLHPEGLGLSVRGGLEFGCGLFISHLIKGGQADSVGLQVGDEIVRINGYSISSCTHEEVINLIRTEKTVSIKVRHIGLIPVKSSPDEPLTWQYVDQFVSES | soluble
MRAAFRTLGCKVNQVETEALLGFLKALEPEVVPLEAGGADLVVINSCAVTTTAEADTRKEVRRARRYNPHAFIVVTGCYAELAPEVLKELGADAVVPNARKAELPRVILERFGLPSDPITTPPNEFWGAGERGLLNSRVRAFLKVQDGCQAGCAYCIIPRLRGKERHRDHREALAEAEALLRMGIKEIVLTGVRLGSYKGHPRGLAGLVEDLYHLGAKVRLSSIEPEDTGEDLLKVIGRYAPEVRPHLHLSLQTGSDRLLKLMGRRYDKAYYRELVQRAYDLIPGFALTTDVIAGLPTETEEEHRETLAFLEELRPTRVHAFTYTPRPKTRAASMPQVPPEVRKRRTKELIALAQRLAEERIRPRLGERVEVLVERVQGGEALGHTPDYYEARLEGEARPGETVWARVHGVEGYVLLGRVEGVKEGARGPLELPVR | soluble
MIKPVGSDELKPLFVYDPEEHHKLSHEAESLPSVVISSQAAGNAVMMGAGYFSPLQGFMNVADAMGAAEKMTLSDGSFFPVPVLCLLENTDAIGDAKRIALRDPNVEGNPVLAVMDIEAIEEVSDEQMAVMTDKVYRTTDMDHIGVKTFNSQGRVAVSGPIQVLNFSYFQADFPDTFRTAVEIRNEIKEHGWSKVVAFQTRNPMHRAHEELCRMAMESLDADGVVVHMLLGKLKKGDIPAPVRDAAIRTMAEVYFPPNTVMVTGYGFDMLYAGPREAVLHAYFRQNMGATHFIIGRDHAGVGDYYGAFDAQTIFDDEVPEGAMEIEIFRADHTAYSKKLNKIVMMRDVPDHTKEDFVLLSGTKVREMLGQGIAPPPEFSRPEVAKILMDYYQSINS | soluble
MFSRGASTMQSRELREQLLGCVKSRKSLHVTGPPGSGKSTFVSRLAEALRVKGCRLGGFMAPEVRRGGRRVAFKIVDIASGEEGYLAVADESLAAPGGRRARHGRYLVLVDEAWRVMSHAIRNAFEHADIIIVDEIGPMELAVPGFREALTEILDSGKPLVTVFHRRLRTLDPGLYKLLERGCIVWLDERNRGPLIRLVSEIASALSNEACGNSLEHHHHHH | not soluble
MLLLTPGPTPIPERVQKALLRPMRGHLDPEVLRVNRAIQERLAALFDPGEGALVAALAGSGSLGMEAGLANLDRGPVLVLVNGAFSQRVAEMAALHGLDPEVLDFPPGEPVDPEAVARALKRRRYRMVALVHGETSTGVLNPAEAIGALAKEAGALFFLDAVTTLGMLPFSMRAMGVDYAFTGSQKCLSAPPGLAPIAASLEARKAFTGKRGWYLDLARVAEHWERGGYHHTTPVLLHYALLEALDLVLEEGVAARERRAREVYAWVLEELKARGFRPYPKASPLPTVLVVRPPEGVDADRLVRALYAEGVAVAGGIGPTRGQVLRLGLMGEGARREAYQAFLKALDRALALA | soluble
AIIVKKTTEIEQTHKDYDPYQILGLDQGADEKAIKKAWRDMSKIHHPDRGGDAQFFDKIAKAHQALTDKEARENWEKYGNPDGPTATTFGIALPKWLVSKEYGL | not soluble
MSDSTQMEANAAINEIKKRTRKLDQSLQMRFCADQFFIGNHCTKLASGKSIIISQNSKNRICLRFFMAADPLVGYTGRDFGIAFNQIDHISLKDEQQENPAVLICTLNLSSYTKMCKLQTGLKDVVEKPFLYNKSLARNLTFILKPWNDDPDTFVKISYNDEHREYVHSYDYDVAKSLMFKEVQAVWEQSLKEQLQRRHQTGRVYLTSQLSEMTPREWVQFLADQKLSKIVCHNGSIQYARVEDNPHGRKHTAVATNGFDHRGTRVLNSFGKAHASLATQEKSYAKKRKLTEQSLKLIYRNDRSVWLEGSCAKNLKMPKINSEPNMGEFMGWPDMDNAMTHPTSNFENEDVMKSTKQPNDFVSFEQLQAPPPVLQRQNGAIYSTQSVAFTHISGNDGVEDLTEKISHLGEEAYNIDMANALHAFSDNWHYEIHPNTVHNASFEQLHIGDGNSSIGTIGFNPLEPYPQSSFPQSNNWQQAHGDFTFPQVSFPNTQQGSCLPSTPTAALPPTRPVVEKIPPDTQLFTFPPSGSCTTGMDPVVLLVKDIKTLDRKEFLNDSVMAFMLNYIAFMLSSELMKSVHMCNTFLFVNLTRLLPPLCFSKRRPIEPEHIKIVKDNCPRVLRWTRKFDVLAKDYIIIPINEDLHWLVIAVINPSGAIVDMSNEEASRAAPKCYIVFFDPLSGLDPSKKNHMCHCIKIYLAQLYENTKAPGMKFASKNPTIYDEERVVVTRAENTPIQDNFYDCGLYVLHFIEGLFCYPNRPVNVNDFPNFDWSKFFPEANKMCDLMRDKVYNLILQQADKPARSRLAKFERENKCGLSREGALRKARRHSAVNERRTKRHRDYYARHYSLSPPHRNVMNDDPTFMNPRGLAEMPITRLVRRLRIPEDNFPIAY | not soluble
SLSIELDLQLAVENEHGLPSEAEFALWLTRTITPFQAQAEVTVRIVDEAESHALNLNYRGKDKPTNVLSFPFEAPSGMEMDLLGDLVICRQVVEREAIEQNKPLQAHWAHMVVHGSLHLLGYDHIEDDEAEEMESLETEIMQEMGFTDPYLAEKE | not soluble
MSLADWQEITGGITAPKGYRAAGITAGLKPSGLPDLALIVSDVEAIASGVFTTSQVKAACVDYCRQRLQAKQSARAILCNAGQANAATGSQGIKDAEESAELLAKELNISPELILLASTGVIGQRIKMDALRNGIPKLIASLTDTGSDAAAGAIITTDLVTKSIALETTIGDRPVRIGGIAKGSGMIHPNMATMLAFVTCDAAVSSHLWQQMLTRAADRSFNSITVDGDTSTNDSLIALANGQSRTPAITEVGAESEKLEAMLTAVCQHLAKAIARDGEGATCLIEVQVTGAHDEQAARQIAKTIAGSSLVKSAIFGRDPNWGRIAAAAGRAGVPFEQENLQIQLGDFLLLDNGQPLPFDRAAASAYLKQAATGAYLQQDTVLISVKVGNGHGTGKAWGCDLSYDYVKINAEYTTEGHHHHHH | soluble
MDSTMTNYMGQENLPPALKLINDKSYQYSTHKHNIETSNDGTLHSYTIVLSREPLESPTSYNKYQKNVEPVQKENQKPKDLNKMTAGPHIAVKNSSGLVSQISSTTSSERKRRTLARPSSSSESDLKVGNIQQSNQYFTLPSVMKPSALSTEDPKKVIVQSNTSSSSMSDASSKKSLPTYTYLSGHTTGSARYVTMVNVKFLLLHCDVLQRRAQSMFTDEFPSDCRLEEVVINFHQLCCRQLLDQNFNPRLSYCIGELNYSDSKPVSANDMSKTLAQLATTQSIAQLSIIVDVTEKNMKLK | not soluble
MSLSKNPTSGFRLTHVGLRVTDIDRSVTFYTSVFGMKELGRMGLDTTTVVFLGYPDAADPQTQLFAREGVLELKSQRGMAESNDYPDFRFVKLAIGVPDMATAMEHIRSHNVKILKEAGVAQGSEVVSTFLGCDMPDKGFDRPLWEAVVAVPFVEDPDGYLIEIIPYEGHHHHHH | soluble
STSGPGGPAAAAGGRKENHQWYVCNREKLCESLQAVFVQSYLDQGTQIFLNNSIEKSGWLFIQLYHSFVSSVFSLFMSRTSINGLLGRGSMFVFSPDQFQRLLKINPDWKTHRLLDLGAGDGEVTKIMSPHFEEIYATELSETMIWQLQKKKYRVLGINEWQNTGFQYDVISCLNLLDRCDQPLTLLKDIRSVLEPTRGRVILALVLPFHPYVENVGGKWEKPSEILEIKGQNWEEQVNSLPEVFRKAGFVIEAFTRLPYLCEGDMYNDYYVLDDAVFVLKPV | soluble
MEPGTYELRGTVHDETFNTTVWTPYNFEGFYYSIDENVSTESLTLTEEISGRSIDDEALVYSTSPALVKFEQESWGSYQVIGFMAEKYFAGYPANTFGNSRSVSVLSDDILAKVLIDDDHKRSMFTGSSIALENGYSLKAAEVDVNGNRVLLELYRDGELVDSGITSSNGDYIYEADIGGAEDVPMIAAHISTVFRSRETDAVFIEGIFQVSDDYLELSQGDSFGKMEISTISSSGITMKNEDSISLSRGNTISLMGNVSFKVADSNVLRFYPFVEVKSAPQDQLRIETPDVFVVGEAAEISVTARDAAVSDVEIRLGNQSIGTTGDDGILAYTPTLEGDFTLYANKAGYLSGSKDVDIVLEHHHHHH | soluble
MPEAWAPVRPETPPAPELLYWNAELADELGLDAGQTDKGELARLFSGADIPEGAQPIAQAYAGHQFGGLSPSLGDGRALLLGEVTDRNGQRRDIALKGSGQTPFSRRGDGKAAVGPMLRELIVGEAMQALGIPTTRALAVTTTGEPVYRERPLPGAVLTRVAASHLRVGTFQYFAIRGETAMLNKLADYTIARHYPQLAGRDGRHLALLAAVAERQAALIARWMHAGFIHGVMNTDNMALSGETIDYGPCAFMDAHYPGTVFSSIDHQGRYAYGNQPAIAQWNLARFAETLLPLISPDDPAAAVPAATEIVEGFEDLYQRRWLEQARRKLGLEGERDDDQALADDWLMLLAAHGVDHTLAWRYLADEAEGKGERLAALFPSPDALTPWLKQWHARHVPRTRRPPDIAAAMRRESPLYIPRNHLVEEALDAASERGDMGPTLKLLEALHQPFAERDGLDRYAQPAAAELAEGYRTFCGTLEHHHHHH | not soluble
MGSDKIHHHHHHMITTTIFPGRYVQGAGAINILEEELSRFGERAFVVIDDFVDKNVLGENFFSSFTKVRVNKQIFGGECSDEEIERLSGLVEEETDVVVGIGGGKTLDTAKAVAYKLKKPVVIVPTIASTDAPCSALSVIYTPNGEFKRYLFLPRNPDVVLVDTEIVAKAPARFLVAGMGDALATWFEAESCKQKYAPNMTGRLGSMTAYALARLCYETLLEYGVLAKRSVEEKSVTPALEKIVEANTLLSGLGFESGGLAAAHAIHNGLTVLENTHKYLHGEKVAIGVLASLFLTDKPRKMIEEVYSFCEEVGLPTTLAEIGLDGVSDEDLMKVAEKACDKNETIHNEPQPVTSKDVFFALKAADRYGRMRKNLT | soluble
MGSDKIHHHHHHMEKVLEIRDLKVYFDLTEGTVKAVDGVSFDIRRGEILGLVGESGCGKSVTAQSILRILPKSARIVNGEIVFHRNGKTLDLTRLDPEGEEIRDIRGKDISMIFQEPMASFSPVYTVGAQMIEAILLHENVSKEEARKRVVEMLKKVKIPNAEKVVDMYPFELSGGMLQRCMIAMAMSLNPTLLLADEPTTALDVTIQAQILYLMKELQKEYHSSILLITHDMGVVAQMADRVAVMYLGNIVETAEVFELFKNPLHPYTQALLRSIPKIGIRKTRLETIKGMVPDPYNLPTGCRFHNRCEKFMKGLCDVKEPPEVEVKPGHKVKCFLYGGEKE | not soluble
